Series [1] deals with recombinant tick anticoagulant peptide (rTAP) (UniProt P17726).
The target in series [2] is activated, fibrinogen-bound GP IIb/IIIa on activated mouse platelets (mouse) (UniProt Q9QUM0). Nature of the series: histology of the wire-injured mouse femoral artery after bead perfusion.
Series [3] has the same target. Briefly: ex vivo 11.7 T MRI of the wire-injured mouse femoral artery after bead perfusion.

activated, fibrinogen-bound GP IIb/IIIa on activated mouse platelets (mouse), sequence (Q9QUM0 32-1033, chain 1 of 2): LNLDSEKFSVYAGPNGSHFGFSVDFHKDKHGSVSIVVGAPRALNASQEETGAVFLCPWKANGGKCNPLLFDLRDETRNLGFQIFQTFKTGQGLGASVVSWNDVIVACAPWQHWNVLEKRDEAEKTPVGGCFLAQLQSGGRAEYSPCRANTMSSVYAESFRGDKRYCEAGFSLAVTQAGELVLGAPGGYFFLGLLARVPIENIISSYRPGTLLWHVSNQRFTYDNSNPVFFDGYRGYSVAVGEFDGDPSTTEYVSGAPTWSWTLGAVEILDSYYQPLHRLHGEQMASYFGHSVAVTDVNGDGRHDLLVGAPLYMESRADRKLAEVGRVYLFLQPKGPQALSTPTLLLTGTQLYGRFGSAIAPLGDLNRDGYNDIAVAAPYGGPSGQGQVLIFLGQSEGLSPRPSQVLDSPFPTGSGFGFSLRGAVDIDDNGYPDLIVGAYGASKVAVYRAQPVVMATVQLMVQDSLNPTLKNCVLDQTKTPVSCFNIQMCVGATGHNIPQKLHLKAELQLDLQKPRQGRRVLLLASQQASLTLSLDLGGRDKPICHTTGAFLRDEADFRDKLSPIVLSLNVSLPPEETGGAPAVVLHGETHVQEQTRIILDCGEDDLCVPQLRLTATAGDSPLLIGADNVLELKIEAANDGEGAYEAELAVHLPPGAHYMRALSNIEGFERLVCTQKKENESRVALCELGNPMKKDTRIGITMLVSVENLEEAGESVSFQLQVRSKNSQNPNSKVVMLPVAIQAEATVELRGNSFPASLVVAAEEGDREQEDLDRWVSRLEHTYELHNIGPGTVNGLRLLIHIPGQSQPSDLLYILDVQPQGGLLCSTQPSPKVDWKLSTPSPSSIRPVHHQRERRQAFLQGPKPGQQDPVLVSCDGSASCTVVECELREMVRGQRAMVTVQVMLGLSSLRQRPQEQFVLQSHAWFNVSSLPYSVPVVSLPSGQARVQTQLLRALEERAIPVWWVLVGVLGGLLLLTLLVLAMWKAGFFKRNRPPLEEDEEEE
activated, fibrinogen-bound GP IIb/IIIa on activated mouse platelets (mouse), sequence (O54890 26-787, chain 2 of 2, further chain): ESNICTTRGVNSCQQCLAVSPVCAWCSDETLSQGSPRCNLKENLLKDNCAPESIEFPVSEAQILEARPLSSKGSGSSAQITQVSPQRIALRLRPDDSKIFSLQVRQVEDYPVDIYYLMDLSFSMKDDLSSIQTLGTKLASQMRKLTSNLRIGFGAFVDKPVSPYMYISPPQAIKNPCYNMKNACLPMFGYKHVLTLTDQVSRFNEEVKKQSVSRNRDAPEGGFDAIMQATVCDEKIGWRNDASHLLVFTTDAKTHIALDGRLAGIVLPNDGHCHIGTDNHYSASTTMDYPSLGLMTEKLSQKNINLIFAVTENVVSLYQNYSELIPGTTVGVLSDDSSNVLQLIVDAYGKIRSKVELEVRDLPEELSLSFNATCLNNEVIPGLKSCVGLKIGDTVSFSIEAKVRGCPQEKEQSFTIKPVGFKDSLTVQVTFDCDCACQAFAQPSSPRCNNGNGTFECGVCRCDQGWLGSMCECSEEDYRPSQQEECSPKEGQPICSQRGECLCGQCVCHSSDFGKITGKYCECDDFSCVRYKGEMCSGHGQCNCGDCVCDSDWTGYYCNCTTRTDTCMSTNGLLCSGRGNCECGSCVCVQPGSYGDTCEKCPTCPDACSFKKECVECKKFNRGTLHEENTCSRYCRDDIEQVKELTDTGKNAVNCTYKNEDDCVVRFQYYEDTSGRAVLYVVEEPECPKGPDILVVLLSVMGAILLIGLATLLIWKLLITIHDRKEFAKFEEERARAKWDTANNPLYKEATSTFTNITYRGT
recombinant tick anticoagulant peptide (rTAP), sequence (P17726 whole entry, the tested form may be a part): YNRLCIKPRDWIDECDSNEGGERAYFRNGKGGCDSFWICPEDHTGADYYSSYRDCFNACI

With factor Xa, the “cleavage of chromogenic substrate (spectrozyme FXa #222) by factor Xa (500 pM), OD at 405 nm” value in series [1] is “inhibition of factor Xa activity by rTAP, scFv anti-LIBS-TAP, and non-targeted mut-scFv-TAP, but not by scFv anti-LIBS”.
“irrelevant single-chain antibody conjugated to MPIO (Control-MPIO) (scFv)” yielded an MPIO-binding (beads per section) (beads per section) in series [2] of 0.5. The luminal areas of low signal suggesting MPIO-accumulation (ex vivo MRI) in series [3] came to 6.2.
With “scFv anti-LIBS (anti-LIBS single-chain antibody)”, the MPIO-binding (beads per section) (beads per section) in series [2] came to 9.98. Also, the luminal areas of low signal suggesting MPIO-accumulation (ex vivo MRI) in series [3] stood at 23.7.

These data come from patent US20090148383A1.
